This is an account of results in article PMC9751095.

For the assay, the target named is Myc-TRAP1 (human) (UniProt Q12931). The assay is described as follows: SPR; printed as "Ka 26 µM". The conditions noted are these: enzyme; chains chain; remark: other sources report otherwise. On the technique in general: Surface plasmon resonance follows binding to a sensor surface in real time, without labels.

What is called Kd is a measure of binding affinity in units of concentration. High values mean a looser complex, low ones a tighter complex.

Sequence of Myc-TRAP1 (human) (Q12931 60-704): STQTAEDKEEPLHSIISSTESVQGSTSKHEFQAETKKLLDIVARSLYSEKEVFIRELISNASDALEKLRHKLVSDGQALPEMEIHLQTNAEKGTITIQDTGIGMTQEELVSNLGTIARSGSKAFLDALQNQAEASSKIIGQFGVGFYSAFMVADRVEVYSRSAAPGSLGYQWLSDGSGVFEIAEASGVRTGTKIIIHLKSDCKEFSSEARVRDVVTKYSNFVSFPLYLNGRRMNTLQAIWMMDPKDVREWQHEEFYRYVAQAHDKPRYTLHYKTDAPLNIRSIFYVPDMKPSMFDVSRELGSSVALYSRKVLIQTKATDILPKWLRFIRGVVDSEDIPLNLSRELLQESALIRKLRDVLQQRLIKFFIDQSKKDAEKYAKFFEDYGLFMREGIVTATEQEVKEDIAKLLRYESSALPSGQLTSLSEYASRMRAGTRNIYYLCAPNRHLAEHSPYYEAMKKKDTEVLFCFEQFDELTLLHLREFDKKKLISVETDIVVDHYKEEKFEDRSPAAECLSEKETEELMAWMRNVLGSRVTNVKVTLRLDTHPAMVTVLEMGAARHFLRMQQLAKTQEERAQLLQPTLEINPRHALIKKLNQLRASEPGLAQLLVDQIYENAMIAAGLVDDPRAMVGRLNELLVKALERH
Sequence of purified recombinant human cyclophilin D, P30405 30-207 (P30405 30-207): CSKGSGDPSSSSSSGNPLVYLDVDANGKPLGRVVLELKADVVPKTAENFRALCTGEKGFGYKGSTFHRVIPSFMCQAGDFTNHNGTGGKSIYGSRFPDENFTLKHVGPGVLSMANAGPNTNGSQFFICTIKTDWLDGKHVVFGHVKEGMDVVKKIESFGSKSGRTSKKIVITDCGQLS

In turn, “purified recombinant human cyclophilin D, P30405 30-207” registered a Kd of 26 µM. This lies in the double-digit micromolar range.
